Paper doi:10.1101/2025.11.18.689162 (bioRxiv, 2025)

Target: cardiac troponin I (TPNI), mouse, endogenous (mouse (endogenous in heart), UniProt P48787 1-211)
Experiment: cell-based or functional assay

cardiac troponin I (TPNI), mouse, endogenous, sequence (P48787 whole entry): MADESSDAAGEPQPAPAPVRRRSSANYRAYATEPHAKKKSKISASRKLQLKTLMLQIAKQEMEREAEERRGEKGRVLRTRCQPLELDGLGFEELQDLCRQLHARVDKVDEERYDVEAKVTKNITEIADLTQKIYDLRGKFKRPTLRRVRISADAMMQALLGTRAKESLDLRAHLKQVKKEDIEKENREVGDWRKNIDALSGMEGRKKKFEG

B1: PDE4D9, mouse, endogenous (enzyme, mouse (endogenous in heart), UniProt Q01063-2 1-678, looked up)
chain: MSIIMKPRSRSTSSLRTTEAVCFDVDNGTSAGRSPLDPMTSPGSGLILQANFVHSQRRESFLYRSDSDYDLSPKSMSRNSSIASDIHGDDLIVTPFAQVLASLRTVRNNFAALTNLQDRAPSKRSPMCNQPSINKATITEEAYQKLASETLEELDWCLDQLETLQTRHSVSEMASNKFKRMLNRELTHLSEMSRSGNQVSEYISNTFLDKQHEVEIPSPTQKEKEKKKRPMSQISGVKKLMHSSSLTNSCIPRFGVKTEQEDVLAKELEDVNKWGLHVFRIAELSGNRPLTVIMHTIFQERDLLKTFKIPVDTLITYLMTLEDHYHADVAYHNNIHAADVVQSTHVLLSTPALEAVFTDLEILAAIFASAIHDVDHPGVSNQFLINTNSELALMYNDSSVLENHHLAVGFKLLQEENCDIFQNLTKKQRQSLRKMVIDIVLATDMSKHMNLLADLKTMVETKKVTSSGVLLLDNYSDRIQVLQNMVHCADLSNPTKPLQLYRQWTDRIMEEFFRQGDRERERGMEISPMCDKHNASVEKSQVGFIDYIVHPLWETWADLVHPDAQDILDTLEDNREWYQSTIPQSPSPAPDDQEEGRQGQTEKFQFELTLEEDCESDTEKDSGSQVEEDTSCSDSKTLCTQDSESTEIPLDEQVEEEAVAEEESQPETCVPDDCCPDT
**Q.** With B1 as the binder, how does the “TPNI phosphorylation in TAC mice treated with scAAV9-P33 against scAAV9-SC” value read?
**A.** Its value is 2.8 fold.
